From article PMC5864728

Biological target: human ICAM-1 extracellular domain with human IgG1 Fc (UniProt P05362)
Assay: flow cytometry on cells
Conditions: HEK293FT cells; co-expressed with β2-WT and GFP-TH; parent: est. 270; read off a plot

Chain of UniProt P05362 (P05362 whole entry, looked up, the tested form may be a part): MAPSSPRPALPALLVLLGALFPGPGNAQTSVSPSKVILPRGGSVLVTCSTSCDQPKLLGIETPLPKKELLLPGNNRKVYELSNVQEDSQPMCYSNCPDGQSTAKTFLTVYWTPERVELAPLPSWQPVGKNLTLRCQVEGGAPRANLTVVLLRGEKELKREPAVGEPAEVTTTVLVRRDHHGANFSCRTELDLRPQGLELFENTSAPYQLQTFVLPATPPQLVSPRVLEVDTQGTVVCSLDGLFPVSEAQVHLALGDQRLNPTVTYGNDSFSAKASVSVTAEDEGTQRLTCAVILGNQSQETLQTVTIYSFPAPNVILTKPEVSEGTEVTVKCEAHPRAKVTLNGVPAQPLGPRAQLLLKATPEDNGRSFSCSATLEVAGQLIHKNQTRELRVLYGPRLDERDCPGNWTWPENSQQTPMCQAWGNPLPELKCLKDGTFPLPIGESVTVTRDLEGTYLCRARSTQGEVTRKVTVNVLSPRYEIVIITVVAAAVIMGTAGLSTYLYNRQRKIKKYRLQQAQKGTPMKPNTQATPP

αL-WT/β2-WT αL:K1097Y
response (Normalized MFI in %): 190

αL-WT/β2-WT αL:L1096Y
response (Normalized MFI in %): 230
